Measurements from patent publication US20100135948A1 (University of Pennsylvania, published 2010).
Where no end group is shown, it is not given here.

T1: desmoglein 3 (human, UniProt P32926 50-615, limits assumed)
T1 construct: Antigen on commercial ELISA plates; also called Dsg3; Dsg 3
T1 sequence (looked up): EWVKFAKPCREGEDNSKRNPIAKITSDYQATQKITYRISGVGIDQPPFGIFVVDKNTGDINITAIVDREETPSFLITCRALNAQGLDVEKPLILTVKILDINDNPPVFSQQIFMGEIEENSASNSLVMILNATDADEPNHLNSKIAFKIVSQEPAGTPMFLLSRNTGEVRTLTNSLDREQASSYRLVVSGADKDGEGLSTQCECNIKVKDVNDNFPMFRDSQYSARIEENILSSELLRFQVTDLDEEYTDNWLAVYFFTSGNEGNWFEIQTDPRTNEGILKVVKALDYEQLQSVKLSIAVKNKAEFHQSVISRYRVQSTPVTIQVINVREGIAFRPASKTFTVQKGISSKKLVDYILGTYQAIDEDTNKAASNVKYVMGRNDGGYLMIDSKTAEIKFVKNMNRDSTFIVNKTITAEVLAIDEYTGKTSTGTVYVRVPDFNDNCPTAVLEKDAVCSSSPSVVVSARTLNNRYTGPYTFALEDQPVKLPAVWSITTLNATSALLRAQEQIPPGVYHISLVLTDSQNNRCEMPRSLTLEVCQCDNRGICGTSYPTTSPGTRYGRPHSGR


Columns and labels:
desmoglein 3 = target: T1, desmoglein 3; assay: ELISA
(D3)3c/9 scFv = target: T2, (D3)3c/9 scFv; assay: ELISA inhibition, monoclonal peptide phage preincubated with PV scFv, Dsg plate (Dsg3 by paragraph 281)
T2 construct: also called pathogenic PV mAb
Protocol: (§1) For ELISA inhibition assays, anti-idiotypic reagents were pre-incubated with PV mAbs for one hour at 37° C. prior to incubation on Dsg3 or Dsg1 ELISA plates (Rhigene/MBL), which were otherwise processed according to manufacturer's instructions. Anti-idiotypic antisera were effective and dose responsive at dilutions ranging from 1:3 to 1:6400, while peptide phage were used in inhibition assays from 10⁸ to 10¹⁰ pfu/well. PV scFv binding, detected with HRP-conjugated anti-HA secondary antibody (Roche), was titrated to a final OD450 reading of 0.4-1.0, which was within the linear range of detection.
(§2) Select peptide phage were tested for their ability to inhibit binding of PV mAbs to Dsg substrates by ELISA (Table 4).

(D31)2/29 scFv = target: T3, (D31)2/29 scFv; assay: as above
T3 construct: also called pathogenic PV mAb
Protocol: as §1, §2

(D31)12b/6 scFv = target: T4, (D31)12b/6 scFv; assay: as above
T4 construct: also called nonpathogenic PV mAb
Protocol: as §1, §2

(D31)2/28 scFv = target: T5, (D31)2/28 scFv; assay: as above
T5 construct: Human anti-Dsg3/Dsg1 scFv from the PV(1) phage library (pComb3X, nickel-purified, HA-detected); also called pathogenic PV mAb
Protocol: as §1, §2

(D3)1d/2c scFv = target: T6, (D3)1d/2c scFv; assay: as above
T6 construct: also called nonpathogenic PV mAb
Protocol: as §1, §2

Binder | binding result (desmoglein 3) | percent inhibition ((D3)3c/9 scFv) [%] | percent inhibition ((D31)2/29 scFv) [%] | percent inhibition ((D31)12b/6 scFv) [%] | percent inhibition ((D31)2/28 scFv) [%] | percent inhibition ((D3)1d/2c scFv) [%]
AKNPPTLIWKHT (peptide, not shown: large carriers, also: displayed on phage, fused to pIII coat protein, linker not given here, Monoclonal phage clone; tested as phage particle) [P9 peptide phage] | no binding | – | – | – | – | –
YSNKTPHLQWRL (peptide, not shown: large carriers, also: displayed on phage, fused to pIII coat protein, linker not given here, Monoclonal phage clone; tested as phage particle) [P7 peptide phage] | no binding | 6 | 83 | 8 | 12 | 9
TTLTLRH (peptide, not shown: large carriers, also: displayed on phage, fused to pIII, Monoclonal phage clone; tested as phage particle) [P14 peptide phage] | no binding | 5 | 16 | 13 | 15 | 8
ANKTSPFLMWRL (peptide, not shown: large carriers, also: displayed on phage, fused to pIII, Monoclonal phage clone from round 3 of screening with (D31)2/29 IgG; tested as phage particle) [P4 peptide phage] | no binding | 7 | 78 | 10 | 9 | 14
TDKTPFLLWRVH (peptide, not shown: large carriers, also: displayed on phage, fused to pIII coat protein, linker not given here, Monoclonal phage clone; tested as phage particle) [P8 peptide phage] | no binding | – | – | – | – | –
QHNKSPNLYWRS (peptide, not shown: large carriers, also: displayed on phage, fused to pIII, Monoclonal phage clone; tested as phage particle) [P10 peptide phage] | no binding | – | – | – | – | –
DLNYFTLSSKRE (peptide, not shown: large carriers, also: displayed on phage, fused to pIII coat protein, linker not given here, Control phage clone; tested as phage particle; also called control phage) [control peptide phage displaying a non-consensus sequence] | – | 8 | 15 | 11 | 2 | 8
WANKQPTIIWRS (peptide, not shown: large carriers, also: displayed on phage, fused to pIII coat protein, linker not given here, Monoclonal phage clone; tested as phage particle) [P5 peptide phage] | no binding | – | – | – | – | –
